These results are taken from patent US7338932.

Data set [1] deals with T1, EA2 acceptor peptide (PTTDSTTPAPTTK).
T1 chain: PTTDSTTPAPTTK

Data set [2] concerns the target T2, MUC2 acceptor peptide (PTTTPISTTTMVTPTPTPTC).
T2 chain: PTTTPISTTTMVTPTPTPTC

The target of data set [3] is T3, MUC7 acceptor peptide (Ac-CPPTPSATTPAPPSSSAPPETTAA).
T3 chain: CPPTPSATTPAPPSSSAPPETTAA

B1: human recombinant GalNAc-T3 (enzyme source of Example 6) (protein)
chain: MERNMKNKNKMLDLMLEAVNNIKDAMPKMQIGAPVRQNIDAGERPCLQGYYTAAELKPVLDRPPQDSNAPGASGKAFKTTNLSVEEQKEKERGEAKHCFNAFASDRISLHRDLGPDTRPPECIEQKFKRCPPLPTTSVIIVFHNEAWSTLLRTVHSVLYSSPAILLKEIILVDDASVDEYLHDKLDEYVKQFSIVKIVRQRERKGLITARLLGATVATAETLTFLDAHCECFYGWLEPLLARIAENYTAVVSPDIASIDLNTFEFNKPSPYGSNHNRGNFDWSLSFGWESLPDHEKQRRKDETYPIKTPTFAGGLFSISKEYFEYIGSYDEEMEIWGGENIEMSFRVWQCGGQLEIMPCSVVGHVFRSKSPHSFPKGTQVIARNQVRLAEVWMDEYKEIFYRRNTDAAKIVKQKAFGDLSKRFEIKHRLQCKNFTWYLNNIYPEVYVPDLNPVISGYIKSVGQPLCLDVGENNQGGKPLIMYTCHGLGGNQYFEYSAQHEIRHNIQKELCLHAAQGLVQLKACTYKGHKTVVTGEQIWEIQKDQLLYNPFLKMCLSANGEHPSLVSCNPSDPLQKWILSQND
On to B1, for which the “galactosyltransferase activity with UDP-Gal” value in data set [1] is reported as “EA2, 6.8 nmol/min/ml”; in data set [2] it was “Muc2, 0 nmol/min/ml”; in data set [3] it was “Muc7, 0.1 nmol/min/ml”.
